In patent publication US20150093383A1 (ONO PHARMACEUTICAL, published 2015):
Values belong to the binder of their own block, whether it stands above or below them. Square brackets hold non-standard residues; d marks the D form. Ends that are not written are not given here. * marks the point of attachment. Biotin = O=C1N[C@H]2[C@H](CS[C@H]2CCCCC(=O)*)N1; pY = N[C@@H](Cc1ccc(OP(=O)(O)O)cc1)C(=O)O

How the values were obtained:
[1] = molecular target: T1, SHP-2 (mouse (endogenous in mouse B cell …, UniProt P35235 2-593)); assay: co-immunoprecipitation with 2.4G2 from stimulated A20IIA1.6 cells, Western blotting
T1 construct: Detected by Western blotting with a Santacruz primary antibody; also called phosphatase
T1 sequence (looked up): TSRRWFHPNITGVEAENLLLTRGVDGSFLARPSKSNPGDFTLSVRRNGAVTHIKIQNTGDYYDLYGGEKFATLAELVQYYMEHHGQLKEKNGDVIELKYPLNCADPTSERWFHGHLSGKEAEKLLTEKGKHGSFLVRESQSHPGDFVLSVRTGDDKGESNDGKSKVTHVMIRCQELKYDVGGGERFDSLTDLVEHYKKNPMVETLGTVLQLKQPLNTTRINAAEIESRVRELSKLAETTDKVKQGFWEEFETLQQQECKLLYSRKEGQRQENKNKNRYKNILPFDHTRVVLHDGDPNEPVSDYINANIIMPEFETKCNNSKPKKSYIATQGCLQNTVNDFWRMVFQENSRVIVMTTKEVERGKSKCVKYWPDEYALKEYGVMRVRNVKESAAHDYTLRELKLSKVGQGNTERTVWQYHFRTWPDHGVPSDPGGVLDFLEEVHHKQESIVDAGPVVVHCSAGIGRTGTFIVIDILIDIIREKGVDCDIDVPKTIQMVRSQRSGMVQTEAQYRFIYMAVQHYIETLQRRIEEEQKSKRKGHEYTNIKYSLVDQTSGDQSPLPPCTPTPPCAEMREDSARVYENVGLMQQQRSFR
Experimental: (§1) Examination was carried out on whether or not intracellular tyrosine residue is phosphorylated and a phosphatase is recruited when BIR1 is activated. With 30 μg/mL of F(ab′)₂ of rabbit anti-mouse IgG (H+L) antibody or 45 μg/mL of intact antibody thereof (manufactured by Zymed), 3×10⁷ cells of the FcR chimeric protein-stably expressing cell suspended in Ca²⁺-containing HEPES/Hanks' buffer were stimulated at 37° C. for 3 minutes. Thereafter, the cells were lysed with a lysis buffer (1% NP-40, 50 mmol/L Tris-HCl, pH 8.0, 150 mmol/L NaCl, 50 mmol/L NaF, 10% glycerol, 1 mmol/L Na₃VO₄, […], proteinnase inhibitor cocktail tablet (manufactured by Roche Diagnostics)). The cell lysate was allowed to react with Protein A/G PLUS-Agarose (manufactured by Santacruz) to which a rat anti-mouse CD16/CD32 antibody (2.4G2) (manufactured by BD Pharmingen) is bound, at 4° C. for 5 hours or more. The FcR chimeric protein and binding molecules thereof are immuno-precipitated and then Western blotting was carried out in the usual way. The membrane was allowed to react with phosphotyrosine (4G10) (manufactured by Upstate) and primary antibodies for SHP-1, SHP-2 and SHIP-1 (manufactured by Santacruz), followed by the reaction with a horse radish peroxidase (HRP)-labeled secondary antibody (manufactured by Santacruz) to detect the bands by an ECL detection system (manufactured by Amersham Biosciences).

[2] = molecular target: T2, SHP-1 (mouse (endogenous in mouse B cell …, UniProt P29351 1-595)); assay: as above
T2 construct: Detected by Western blotting with a Santacruz primary antibody; also called phosphatase
Experimental: as §1

[3] = molecular target: T3, SHIP-1 (mouse (endogenous in mouse B cell …, UniProt Q9ES52 1-1191, limits assumed)); assay: as above
T3 construct: Detected by Western blotting with a Santacruz primary antibody; also called phosphatase
T3 sequence (looked up): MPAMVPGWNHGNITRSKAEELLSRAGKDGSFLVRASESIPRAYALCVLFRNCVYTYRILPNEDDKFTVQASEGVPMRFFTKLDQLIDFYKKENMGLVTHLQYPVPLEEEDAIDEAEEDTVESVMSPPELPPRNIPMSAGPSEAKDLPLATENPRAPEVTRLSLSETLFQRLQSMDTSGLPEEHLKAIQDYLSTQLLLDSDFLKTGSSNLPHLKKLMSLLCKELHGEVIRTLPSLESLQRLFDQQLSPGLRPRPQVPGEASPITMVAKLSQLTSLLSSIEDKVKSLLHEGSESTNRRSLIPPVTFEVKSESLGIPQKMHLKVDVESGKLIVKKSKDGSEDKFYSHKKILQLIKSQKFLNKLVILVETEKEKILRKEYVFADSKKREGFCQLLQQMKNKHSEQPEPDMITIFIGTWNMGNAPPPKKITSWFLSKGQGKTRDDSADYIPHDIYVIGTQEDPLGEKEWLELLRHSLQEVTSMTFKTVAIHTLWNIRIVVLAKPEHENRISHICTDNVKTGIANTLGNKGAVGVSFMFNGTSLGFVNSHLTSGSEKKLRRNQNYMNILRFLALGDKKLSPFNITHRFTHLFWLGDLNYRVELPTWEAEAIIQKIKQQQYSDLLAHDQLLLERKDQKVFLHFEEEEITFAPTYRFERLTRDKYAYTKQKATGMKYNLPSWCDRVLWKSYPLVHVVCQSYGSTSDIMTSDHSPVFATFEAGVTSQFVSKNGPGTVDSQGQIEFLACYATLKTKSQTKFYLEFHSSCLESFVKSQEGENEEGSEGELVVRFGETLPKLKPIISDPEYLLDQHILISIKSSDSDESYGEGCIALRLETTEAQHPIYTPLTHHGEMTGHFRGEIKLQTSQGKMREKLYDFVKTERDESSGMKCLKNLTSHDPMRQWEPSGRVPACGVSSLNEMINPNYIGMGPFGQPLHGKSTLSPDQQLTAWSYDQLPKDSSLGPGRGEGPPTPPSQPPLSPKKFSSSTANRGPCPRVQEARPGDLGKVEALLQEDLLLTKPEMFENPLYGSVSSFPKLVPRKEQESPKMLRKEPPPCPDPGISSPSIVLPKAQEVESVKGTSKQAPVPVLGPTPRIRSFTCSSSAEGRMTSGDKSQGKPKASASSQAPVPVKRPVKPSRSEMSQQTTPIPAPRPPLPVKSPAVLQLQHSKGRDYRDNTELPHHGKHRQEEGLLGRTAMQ
Experimental: as §1

[4] = molecular target: T1, SHP-2; assay: pull-down of A20IIA1.6 lysate with biotinylated phosphopeptide, Western blotting
Description: (§2) The ITIM domain which is a sequence important for BIR1 in transmitting inhibitory signal and the binding phosphatase were identified. Peptides (Y3: Biotin-HSQELQ³¹³YATPVF (SEQ ID NO:23), Y5: Biotin-DSYKSG³³⁶YVYSEL (SEQ ID NO:24), Y6: Biotin-YKSGYV³³⁸YSELNF (SEQ ID NO:25)) containing intracellular tyrosine of BIR1 (SEQ ID NO:1) and their corresponding phosphorylated peptides (pY3: Biotin-HSQELQ³¹³(pY)ATPVF (SEQ ID NO:26), pY5: Biotin-DSYKSG³³⁶(pY)VYSEL (SEQ ID NO:27), pY6: Biotin-YKSGYV³³⁸(pY)SELNF (SEQ ID NO:28)) were synthesized (consigned to Sigma Genosys). A peptide containing the ITIM sequence of mouse PIR-B and its phosphorylated peptide (Y3: Biotin-ESQDVT⁷⁹⁴YAQLCS (SEQ ID NO:29) and pY3: Biotin-ESQDVT⁷⁹⁴(pY)AQLCS (SEQ ID NO:30)) were synthesized as positive controls. These peptides were connected to Protein A/G PLUS-Agarose (manufactured by Santacruz) via an anti-biotin antibody (manufactured by Sigma) and then allowed to react with a lysate of A20IIA1.6 cell at 4° C. for 2 hours. After immunoprecipitation, western blotting was carried out in the usual way. The membrane was allowed to react with primary antibodies for SHP-1, SHP-2 and SHIP-1 (manufactured by Santacruz), and then allowed to react with an (HRP)-labeled secondary antibody (manufactured by Santacruz), and the bands were detected using an ECL plus Western Blotting Detection System (manufactured by Amersham Biosciences).

[5] = molecular target: T2, SHP-1; assay: as above
Description: as §2

[6] = molecular target: T3, SHIP-1; assay: as above
Description: as §2

binding result [1]: no binding
binding result [2]: no binding
binding result [3]: no binding
B1: FcR-hBIR1 (YWF) (receptor)
chain: THDLPKAVVKLEPPWIQVLKEDTVTLTCEGTHNPGNSSTQWFHNGRSIRSQVQASYTFKATVNDSGEYRCQMEQTRLSDPVDLGVISDWLLLQTPQLVFLEGETITLRCHSWRNKLLNRISFFHNEKSVRYHHYSSNFSIPKANHSHSGDYYCKGSLGRTLHQSKPVTITVQGPKSSRSLPVLTIVAAVTGIAVAAIVIILVSLVYLKKKQVPKFKTRKAMRNNVPRDRGDTAMEVGIFANILEKQAKEESVPEVGSRPCVSTAQDEAKHSQELQFATPVFQEVAPREQEACDSFKSGFVFSELNF
notes: Stably expressed in the mouse B cell strain A20IIA1.6; Immunoprecipitated from the cell lysate with 2.4G2; also called mutant in which intracellular tyrosine residue of BIR1 was replaced by phenylalanine residue

binding result [4]: no binding
binding result [5]: no binding
binding result [6]: no binding
Binder: Biotin-DSYKSG[pY]VYSEL (Synthesised by Sigma Genosys) [pY5: Biotin-DSYKSG^336(pY)VYSEL]
